Laboratory results published in PMC7687109, “Effect of structural stability on endolysosomal degradation and T‐cell reactivity of major shrimp allergen tropomyosin” (Allergy, 2020).

Columns and labels:
Assay in all cases: SEC-MALS; purified recombinant tropomyosin, neutral pH (pH 7.4), constant temperature of 25°C; molar mass from the peaks
[1] = molecular target: Der p 10 (house dust mite tropomyosin) (Dermatophagoides pteronyssinus)
[2] = molecular target: Pen m 1 (black tiger shrimp tropomyosin) (Penaeus monodon)
[3] = molecular target: the molecule itself

Molecule | stoichiometry N [3] | further results
Der p 10 (house dust mite tropomyosin) (natural protein) |  | stoichiometry N [1]: 2
Pen m 1 (black tiger shrimp tropomyosin) (natural protein) |  | stoichiometry N [2]: 2
Bla g 7 (German cockroach tropomyosin) (natural protein, Blattella germanica, UniProt Q9NG56 1-284, looked up) MDAIKKKMQAMKLEKDNAMDRALLCEQQARDANIRAEKAEEEARSLQKKIQQIENDLDQTMEQLMQVNAKLDEKDKALQNAESEVAALNRRIQLLEEDLERSEERLATATAKLAEASQAADESERARKILESKGLADEERMDALENQLKEARFMAEEADKKYDEVARKLAMVEADLERAEERAETGESKIVELEEELRVVGNNLKSLEVSEEKANLREEEYKQQIKTLNTRLKEAEARAEFAERSVQKLQKEVDRLEDELVHEKEKYKYICDDLDMTFTELIGN | 2 | 
Ani s 3 (Anisakis tropomyosin) (natural protein, Anisakis simplex, UniProt Q9NAS5 1-284, looked up, also called fish parasite tropomyosin) MDAIKKKMQAMKIEKDNALDRADAAEEKVRQMTDKLERIEEELRDTQKKMMQTENDLDKAQEDLSTANSNLEEKEKKVQEAEAEVAALNRRMTLLEEELERAEERLKLATAKLEEATHTADESERVRKVMENRSFQDEERANTVESQLKEAQMLAEEADRKYDEVARKLTMVEADLERAEERAETGENKIVELEEELRVVGNNLKSLEVSEEKALQREDSYEEQIRTVSARLKEAETRAEFAERSVQKLQKEVDRLEDELVHEKERYKSISEELDQTFQELSGY | 2 | 
